Assay: soluble on expression in E. coli; label from the status in PepcDB or PDB records

Sequence | soluble on expression in E. coli
MNYTETVAYIHSFPRLAKTGDHRRILTLLHALGNPQQQGRYIHVTGTNGKSTAANAIAHVLEASGLTVGLYTSPFIMRFNERIMIDHEPIPDAALVNAVAFVRAALERLQQQQADFNVTEFEFITALGYWYFRQRQVDVAVIEVGIGGDTDSTNVITPVVSVLTSVALDHQKLLGHTITAIAKHKAGIIKRGIPVVTGNLVPDAAAVVAAKVATTGSQWLRFDRDFSVPKAKLHGWGQRFTYEDQDGRISDLEVPLVGDYQQRNMAIAIQTAKVYAKQTEWPLTPQNIRQGLAASHWPARLEKISDTPLIVIDGAHNPDGINGLITALKQLFSQPITVIAGILADKDYAAMADRLTAAFSTVYLVPVPGTPRALPEAGYEALHEGRLKDSWQEALAASLNDVPDQPIVITGSLYLASAVRQTLLGGKS | soluble
EMEEREIINNVFEFGDMQAKNAMVQRIDMVAIDMEDSYDEIIQVFKTEKLSRMPVYEETIDDIVGILNIKDIIFLSDEEIESFDIKNYMREPFFTYEFKKITQLLEEMKLEKSQMAIVVDEYGGTSGLLTIEDLVEVIVGDIE | soluble
MGSDKIHHHHHHMIPFHDRPFAEYLVEMLRGQGFRRILFLLGYLPDKVTEHFGDGSRFGVEIEYAVSPVEDETGTRLRRVKDRLDDIFVLLYCDNYWPMPFAAMWERYCRLGVEAMVTVYRNRDGYTRDNLRVDDDGLLALYDKSRTAPGLAGVDIGFFILTRAVIDLIPEGGNPSFEKSVYPVLVERRQLAAFETDHRYYSVGSHERLPLTEAFLARNKTVLLDRDGTLNLRMPRAEYVRSWADWQWLPGAREALAELARADYRIILITNQPGLARGALDQAALDAIHGRMIEETQAAGGRIDHIYYCPHNWDEGCDCRKPRPGMLFQAQRDFHLDLSRVTFIGDDDRDGEAAQAAGAPFLQVTESYSLLDAVHDLLAADHSNPVTGKCPD | not soluble
MGSDKIHHHHHHMSDANVSRLGQANLSGDAKALFLKVFSGEVLTAFQESCVTADKHLVRTITSGKSAQFPILGKISAQYHTPGAEIAGLSVPANEQIITIDDLLISHAFIASIDEAMNHYDVRGPYSTEMGRALSYTYDKHILQLGVLAARASAPVSTEAGGGSVTDSALLTDTTGEALVAALFAAAQKLDEKFIPADERYAYLTPAAYYMLAQNTKLMNSLWGGQGSYAKGELPQVAGISLVKAVHAPFGSNIATVANGGTALTAGTSDKYAVDATSTAALVMHKAAVGTVKLMDLAMESDYDIRRQGTLMVAKYAMGHGILRPAAAVELKTA | not soluble
MSLKNLQCELDWERRFDGMQQHLGQHLLSGCFYDLFGANTCGFHLGKEISTVDIVGFLDEKTIREAEKEANRLIFENLEVKSYAPSKKELKKVKTRRALPKTDEEIRIVEIVGLDLNACCGVHPRNTRDLQVIKIRRWEKHKNATRIEYVAGNRAVSEGHHHHHH | not soluble
MDGRRLVVRHGADTSVDTVWNILTDTDCWADWGPSVTAVETATRYIDDGTTGRVCVAGAVWLPFEVTACTPYRWTWTVARLPATGHFVEERAGGSVVGFEIPPLATGYAPVCARACQRIATLAQQRDALEHHHHHH | soluble
SLSTADALDDENTFKILVATDIHLGFMEKDAVRGNDTFVTLDEILRLAQENEVDFILLGGDLFHENKPSRKTLHTCLELLRKYCMGDRPVQFEILSDQSVNFGFSKFPWVNYQDGNLNISIPVFSIHGNHDDPTGADALCALDILSCAGFVNHFGRSMSVEKIDISPVLLQKGSTKIALYGLGSIPDERLYRMFVNKKVTMLRPKEDENSWFNLFVIHQNRSKHGSTNFIPEQFLDDFIDLVIWGHEHECKIAPTKNEQQLFYISQPGSSVVTSLSPGEAVKKHVGLLRIKGRKMNMHKIPLHTVRQFFMEDIVLANHPDIFNPDNPKVTQAIQSFCLEKIEEMLENAERERLGNSHQPEKPLVRLRVDYSGGFEPFSVLRFSQKFVDRVANPKDIIHFFRHREQKEKTGEEINFGKLITKPSEGTTLRVEDLVKQYFQTAEKNVQLSLLTERGMGEAVQEFVDKEEKDAIEELVKYQLEKTQRFLKERHIDALEDKIDEEVRRFRETRQKNTNEEDDEVREAMTRARALR | soluble
MGSDKIHHHHHHMPALCSTVQTLEKLAKDDVSSLALLGRSVMHDNALTSRILRVANSAIYHKGSTQISTVSRAAIVLGFDAVRNICITAQLLSSLLESKNLAPSVYQRLIKLMAKAFQAAMLTRMMLSDYDDDIQEEAFIACLLFHIGESAFWSIGGEFTETLDSQLTECETSADERSLIRETIGTSFSQLTQSIARHWGLGELLIQAVNYPDDPRPEIRSIFLADKLCDTLSVATPDKNDLEKYINQAANFTGLDETEFTLKMQRCTKATHKLAEAYGAKVLIDYLPDPQRIDKLEPYLPEAELPIFEANLNVQLVKLRELTAFAINKADFNQIMQTVLEGILEGVGVDRCGVLLLSPSRKQLQPRIMLGRDAEEMKRQFIIELGDRKGLFPMAMEHKESLWVDSPCAKKWQEQCRELKVQLPESGFLVAPLLVDNKVIGFYYADRGPSERCFAEVDFQAFIHFSQLANVCFTVSLK | not soluble
METSTIIDGGTSFVIDSEKKTITIYVKTADGSSVKAEGCTETVIESGTESTLNIKSSLIILKGNIIEFNCGGDPYTYGNQIKSLNVQGLKNLEKLNCSGNRLTELNIEGLNNLKELACRYNRLSSLDVAHLPALEFLWCTANLLTDLNLTGMSSLKRLGCNNNKLEVLNLEGLTSLEHLWCGNNLLNKLNLTDLKSLTGLNCEKNKLTELDLTGLTALEHLWCSKNLLTKLNLTKALHLQSLDCSSNMLTELNTEELNDLQYLNSSGNCLPLS | not soluble
MKSILEQLSSITVVVADTGDLDAIKKFQPRDATTNPSLILAAAKNPDYIKLIDQALESSRKSLPAGFSESELIKETIDQVSVFFGKEILNLISGRVSTEVDARLSFDTEATVTKARKLINHYKSFGINKERILIKIASTWEGIKAAEILEKEGIKCNLTLLFNFCQAVACANAKITLISPFVGRILDWHKAKTGKDNFAGCEDPGVISVTKIYNYFKEKGFKTEVMGASFRNIDEIKELAGCDLLTIAPKFLDELNREEGELIKKLDEDTQSQSSIDYKFDEKDFRLSMLEDQMASEKLSEGITGFSKAIEELEELLLKRLSEINNQKLISTT | not soluble
MQVASRVKARRLEMNLTQEGIALRAGMKLPTYRRFERTGEISFRGLLQIGFALNALQDFALLFDQRLYQTLDEVLAEQQPKRKRGSKK | not soluble
MSLKICNFRAHYSPTMLSYVIIFMVEKMNYIKINLKLNNPLAFWANFSESERFFWFDPQKETFVIGCERLKAIDLEHDKFSDYTYLFHSQTFFDDIKGELWENFGGETIAFKHYFVVNKENSYTLTCDSPREIPEITIPKFKHQLTEKASDFSAWQELFYAIQKNFADGKSRKIVASRELEFTSQTSFELESIIQNLLDNNPNAFIFAYQKGKRIFLGASPEILVQKENDQLLSYALAGTFPKTMENAGQKLLTDPKNLLEHDIVVQKIKRNLLEKAETVTVGTTELMELKNVYHLRTILSAKNSELSLIDWTKQLHPTPALGGEPRHEALEFLRKHENHERGLYAAPLGLIDSKGNGTMIVGIRSALIVDKKLYAYAGCGIIPSSDALEEFRETKVKLKTILEALEGHHHHHH | not soluble
MRQAASIACIGGANVDRKARLLTPFRLGTSHPVTTTQTAGGVARNIAENLGRLAQPVSLVSTVGDDRDGQWLVDVTSRYVNTSFIVRTPKANTGTYTAVLDERGEMVLALADMAIYHPEPRRPPLPRVSVSGG | not soluble
MGSDKIHHHHHHMAQEALCRKRHEGFNGSMVGVSLADLIQLKGTNRFSGCISVEFGGRCGVIFFQDGEIVHAEKGSCEGEEALQRIMRWPGGRFTAYPHLATDRHSIRKNRQHLLLDAHRAMDERHRHVDPKGERAEQTPLRERIRAIGMVSDAITLDFDGVPTDEKSPSADRLAAGACFLARLADRIGSRLGTGSPTSMVLEGTREHLFIYTGKHHLLAVAAGADHQPPMVEEAIRRAVQTA | not soluble
MPSYKLTYFDACGFGESARMLFHLGGVPYEDVRLPTINAVPGFQSDEFSALKDKTPFGRFTVLSIDGFDLAQSSAIHRYLARKFGYAGKTPEDEAFADSIVDQFNEYYASLHPYRDAVKTGKTMEEVKQIHDKVYIPAKNLMFKILTRILKENKSGFLVGDGLTWADLVVADHLYTLTNLKELDPEDPIHLTLRKFQEKIFNLTELKDYIETRPVTLV | not soluble
MGTEGGAMIRTVALVGHAGSGKTTLTEALLYKTGAKERRGRVEEGTTTTDYTPEAKLHRTTVRTGVAPLLFRGHRVFLLDAPGYGDFVGEIRGALEAADAALVAVSAEAGVQVGTERAWTVAERLGLPRMVVVTKLDKGGDYYALLEDLRSTLGPILPIDLPLYEGGKWVGLIDVFHGKAYRYENGEEREAEVPPEERERVQRFRQEVLEAIVETDEGLLEKYLEGEEVTGEALEKAFHEAVRRGLLYPVALASGEREIGVLPLLELILEALPSPTERFGDGPPLAKVFKVQVDPFMGQVAYLRLYRGRLKPGDSLQSEAGQVRLPHLYVPMGKDLLEVEEAEAGFVLGVPKAEGLHRGMVLWQGEKPESEEVPFARLPDPNVPVALHPKGRTDEARLGEALRKLLEEDPSLKLERQEETGELLLWGHGELHLATAKERLQDYGVEVEFSVPKVPYRETIKKVAEGQGKYKKQTGGHGQYGDVWLRLEPASEYGFEWRITGGVIPSKYQEAIEEGIKEAAKKGVLAGFPVMGFKAIVYNGSYHEVDSSDLAFQIAASLAFKKVMAEAHPVLLEPIYRLKVLAPQERVGDVLSDLQARRGRILGMEQEGALSVVHAEVPLAEVLEYYKALPGLTGGAGAYTLEFSHYAEVPPHLAQRIVQERAQEG | soluble
MTHDNIDILVVDDDISHCTILQALLRGWGYNVALANSGRQALEQVREQVFDLVLCDVRMAEMDGIATLKEIKALNPAIPVLIMTAYSSVETAVEALKTGALDYLIKPLDFDNLQATLEKALAHTHSIDAETPAVTASQFGMVGKSPAMQHLLSEIALVAPSEATVLIHGDSGTGKELVARAIHASSARSEKPLVTLNCAALNESLLESELFGHEKGAFTGADKRREGRFVEADGGTLFLDEIGDISPMMQVRLLRAIQEREVQRVGSNQIISVDVRLIAATHRDLAAEVNAGRFRQDLYYRLNVVAIEVPSLRQRREDIPLLAGHFLQRFAERNRKAVKGFTPQAMDLLIHYDWPGNIRELENAVERAVVLLTGEYISERELPLAIASTPIPLGQSQDIQPLVEVEKEVILAALEKTGGNKTEAARQLGITRKTLLAKLSR | soluble
MLLNEIPWTIPLTVRLSNGLTHTFASVYEALDFLENEWPLRKGERYERAVRTCRRALNRMTPAAVAREAFIAACLEAGMPLVMAPPAREPQGDTVKAAHTA | not soluble
MASDMPLVQLPQRGERINVPLVQSRSEDQRLVTSARQTDKIDADDLVALANQLNSARQLVKGRACDRLKQIADQMEQLHMAARAVLEDAQRDEHLHNVPCNMEKQPGRIYHLYQKQGSMNKYFSMLAPNEWGYQEKKEEYLGSYRLEYDRSWTPVGEMDRKDEEVARLQQLLQREGPVALRGNPNF | not soluble
MVFRKYRAVKQWGKMDTRIFKEIYNSRNKRKMPAFEVPDAVKALGVPVFEPNEIFQLSNRKNLVEQAAKEHMENELKFTEPPQQHPLQKSHPAYIFEAAEPMSDGIAQAAVLTRSVVATGGLPDTILLNSAAKLEIDEEMVKDAILHGERYNPSLEKLPARFDPVMFWIRHPRLHGTPVIKKNNIILNNLLRHVVLGGLRTQALKQNFQFSTKILQKNSNFLWKIQKNLIFSDFRLKLKNFCRVNRDSPLSVYVSGGQYFSKNALVLRAQPHLTVQSADSTVTMPWAGPIDVKAVWRIFTKMFSFSSFSYQNSSIFHQKLSKIFSAEPLPDIYPISPVIDFSMDTIYNDDVLLTRRSQQQKTHIHSILWSREQDQKYPWTSEQNMANAILTTYAAAVAEATRNGATTELEKPLLVRGVQLVNGRLDLVAMQLNTLKPTSEAGNNDEKNIVWIEKGLRLYKPTPYYEQMDTVEKLDMTVFHKFVALMLGFGAPHAH | not soluble

— the DeepSol protein solubility set
